Assay results taken from patent US12350286B2, “Polypeptides directed against viral infection and uses thereof” (QUADRUMIX BIOTECHNOLOGY INC., priority 2020, dated 2025).
Entries after “also recorded” stand apart in the source; their conditions may differ. Like-named read-outs stand apart in the source and are kept apart here.

What was measured:
[1] = test system: HBeAg; conditions: HepAD38 cells, 6-day time course
Protocol: In this Example 3, the effects of the presently designed polypeptides on HBV replication were analyzed, HepAD38 cells that expresses HBV under the control of a tetracycline promoter were used. HepAD38 cells were plated in the presence of TDF or candidate therapeutic (sdAb10-2) without tetracycline for three days to induce HBV production and to establish a cccDNA reservoir in the nuclei of infected cells. After three days, drugs/sdAbs were replenished and the media was replenished with tetracycline to suppress HBV transcripts being produced from the plasmid, so that only HBV markers be produced from the established cccDNA reservoir. Varying drug concentrations of—TDF and sdAb10-2 were used to determine drug toxicity (TD50) and efficacy during the 6-day time course.
The ability of the presently designed polypeptides to reduce HBeAg levels was also analyzed.

[2] = test system: HBV; assay: supernatant HBV DNA in HepAD38 cells; assay type: cell-based; conditions: 6-day time course
Text: Having regard to FIG. 12, TDF targets the HBV reverse transcriptase, thus only affecting the number virions secreted in the supernatant. In contrast, the presently designed polypeptides should affect cccDNA stability, which can be indirectly measured through levels. As expected, a significant decrease in supernatant HBV (2 log) was caused by TDF treatment. A significant, albeit lower, decrease in HBV supernatant DNA was also observed from sdAb10-2 treatment (0.5 log).

[3] = test system: wild-type G-quadruplex of HBV cccDNA pre-core promoter region; assay: phage ELISA assay (absorbance at 450 nm), wild-type vs mutant G-quadruplex; assay type: binding; conditions: for affinity for wild-type G-quadruplex structure of HBV cccDNA compared to mutant G-quadruplex structure: phage ELISA, WT vs MUT (G1748A)
Text: According to embodiments, methods of developing and designing the present at least one novel polypeptide comprising at least one antiviral sdAb are provided. In some embodiments, the methods comprise accessing a fully synthetic phage-display library that codes for 3-billion sdAbs clones, enabling efficient selection of in vitro humanized antibodies against virtually any antigen. Advantageously, no animals or immunization are required, allowing the selection of sdAbs that can target unprocessed G-quadruplex, thereby overcoming conventional techniques of injecting animals to raise antibodies (such techniques known to alter antigen structures).
Having regard to FIG. 4B and Table 1 herein, the at least nine polypeptides having at least one sdAb are referred to as sdAbs 1, 4, 5, 6, 7, 8, 9, 10, and 11 and comprise an amino acid sequence represented as SEQ ID NOs: 9, 10, 11, 12, 13, 14, 15, 16, and 17, respectively.

[4] = test system: NTCP-HUH7 cells; assay: localization and entry into target cells (staining, microscopy); assay type: cell-based
Text: The foregoing one or more modifications of the at least one polypeptide sdAb10 result in antiviral efficacy. […] Alternatively, the second and third rows shown in FIG. 7 provide that both polypeptides modified to include a cell penetrating peptide coding sequence entered the target cells (i.e. the nuclei and cytoplasm being visualized Hoescht stain and by fluorescently labelled anti-vinculin antibodies, respectively).

[5] = test system: HBV cccDNA; assay: pulldown assay with Hirt-extracted cccDNA from explanted HBV infected liver; assay type: binding; conditions: for interaction with cccDNA: pulldown, cccDNA from explanted HBV infected liver; for replicates that picked up cccDNA: three replicates, nested PCR detection
Protocol: In this Example 1, binding studies for at least one of the presently designed polypeptides having at least one sdAb with HBV pre-core G-quadruplex were performed using patient derived samples. For example, two of the presently developed sdAbs, namely sdAb #8 (NB01) and sdAb #1 (NB07), were produced via E. coli expression system and purified via nickel bead affinity chromatography, then size exclusion chromatography (as described in more detail herein). Pulldown assays using Hirt-extracted cccDNA from explanted liver tissue (i.e. liver transplanted secondary to HCC from HBV) were performed.
Having regard to FIG. 8B, results are provided from the pulldown study using sdAbs-bound to magnetic nickel beads with Hirt-extracted, T5 exonuclease-digested cccDNA from an explanted HBV infected liver. Beads were incubated with the corresponding sdAbs comprising, in this Example, the presently developed sdAb8 and sdAb1, washed, and incubated with cccDNA. Excess cccDNA was removed (“xsDNA” lanes), followed by 4 washing steps (“4th Wash” lanes). The sdAbs were eluted and cccDNA was detected through nested PCR (“Elution” lanes). The first lane is the DNA marker highlighting the 150 bp fragment and the next two lanes represent the “sdAb only” elutions (sdAb8 and sdAb1). Subsequent sets of 3 represent the excess cccDNA (“xs”), last washes (“W”) and elutions (“E”) from the corresponding tubes. The last three lanes represent the PCR controls, with negatives from the direct (D) and nested (N) rounds.

[6] = test system: HBV surface antigen (HBsAg); assay: HBsAg levels following exposure to the polypeptide; conditions: increased concentration from 50 μg/mL to 100 μg/mL
Protocol: Having regard to FIG. 5A, expression methods using a bacterial expression system (SDS-PAGE) yielded ˜3 mg of pure sdAbs from 1 L bacterial culture, where lane 1 represents the standard molecular weight marker and elution fractions are shown in lanes 2-6, indicating the presence of at least one polypeptides having at least one sdAb (between 18.4 kDa and 14.4 kDa markers). […] The foregoing confirms that the at least one polypeptide comprise at least one antiviral sdAb.

[7] = test system: HBV pre-core G-quadruplex; assay: MST binding study with HBV pre-core G-quadruplex
Protocol: In this Example, binding studies for at least one of the presently designed polypeptides having at least one sdAb (e.g. sdAb10M and sdAb1) with HBV pre-core G-quadruplex were performed.

`CC(C)OC(=O)OCOP(=O)(CO[C@H](C)Cn1cnc2c(N)ncnc21)OCOC(=O)OC(C)C.O=C(O)/C=C/C(=O)O` [TDF, Tenofovir Disoproxil Fumurate, reference compound] was tested, and the HBeAg levels [1] was “did not significantly decrease” and the “decrease in supernatant HBV DNA” value [2] was 2 log.

B1: sdAb 6: single domain antibody, amino acid sequence SEQ ID NO: 12 (protein)
VHH: MAEVQLQASGGGFVQPGGSLRLSCAASGTGFRHTAMGWFRQAPGKEREFVSAISGHASKQAYYADSVKGRFTISRDNSKNTVYLQMNSLRAEDTATYYCAFRRAEKIYGHPMAPQKLWYWGQGTQVTVSS
modifications: Single-Domain Antibody 6
For B1, the “affinity for wild-type G-quadruplex structure of HBV cccDNA compared to mutant G-quadruplex structure” value [3] was “higher affinity for the wild-type G-quadruplex structure”.

B2: sdAb10-2: sdAb10 modified with CPP, NTCP-recognition and NLS sequences; full sequence SEQ ID NO: 20 (protein)
VHH: MAEVQLQASGGGFVQPGGSLRLSCAASGRTSKITSMGWFRQAPGKEREFVSAISWSNGLTNYYADSVKGRFTISRDNSKNTVYLQMNSLRAEDTATYYCASKIHTKPKWYWGQGTQVTVSSGGGGSGRKKRRQRRRPPQGGGGSNPLGFFPGGGGSDHQLDGGGGSPKKKRKVSSFLRNHHHHHH
modifications: Single-Domain Antibody 10-02
B2 was tested, and the HBeAg levels [1] was “significantly decreased”, the “decrease in supernatant HBV DNA” value [2] was 0.5 log and the “entry into target cells” value [4] was “enter the cell; also recorded: localize and enter the target hepatocyte cells”.

B3: sdAb 7: single domain antibody, amino acid sequence SEQ ID NO: 13 (protein)
VHH: MAEVQLQASGGGFVQPGGSLRLSCAASGRTYRGETMGWFRQAPGKEREFVSAISWGWSNRAYYADSVKGRFTISRDNSKNTVYLQMNSLRAEDTATYYCASRHMRRAPWSGPGMSYWGQGTQVTVSS
modifications: Single-Domain Antibody 7
In the case of B3, the “affinity for wild-type G-quadruplex structure of HBV cccDNA compared to mutant G-quadruplex structure” value [3] is reported as “higher affinity for the wild-type G-quadruplex structure”.

B4: sdAb 11: single domain antibody, amino acid sequence SEQ ID NO: 17 (protein)
VHH: MAEVQLQASGGGFVQPGGSLRLSCAASGFTSESTSMGWFRQAPGKEREFVSAISRWESTEEYYADSVKGRFTISRDNSKNTVYLQMNSLRAEDTATYYCAYRMHWGGRWRWNYWGQGTQVTVSS
modifications: Single-Domain Antibody 11
In the case of B4, the “affinity for wild-type G-quadruplex structure of HBV cccDNA compared to mutant G-quadruplex structure” value [3] is reported as “higher affinity for the wild-type G-quadruplex structure”.

B5: sdAb 4: single domain antibody, amino acid sequence SEQ ID NO: 10 (protein)
VHH: MAEVQLQASGGGFVZPGGSLRLSCAASGRTSKWYSMGWFRQAPGKEREFVSAISYRQNIRAYYADSVKGRFTISRDNSKNTVYLQMNSLRAEDTATYYCAATHSYLFKFPTHFPQPQDYWGQGTQVTVSS
modifications: Single-Domain Antibody 4
With B5 the “affinity for wild-type G-quadruplex structure of HBV cccDNA compared to mutant G-quadruplex structure” value [3] was “higher affinity for the wild-type G-quadruplex structure”.

B6: sdAb8: single domain antibody, amino acid sequence SEQ ID NO: 14 (protein)
VHH: MAEVQLQASGGGFVQPGGSLRLSCAASGTTSGQTAMGWFRQAPGKEREFVSAISGHHTPRAYYADSVKGRFTISRDNSKNTVYLQMNSLRAEDTATYYCAWIRRKPQSWYWGQGTQVTVSS
modifications: Single-Domain Antibody 8
In the case of B6, the “affinity for wild-type G-quadruplex structure of HBV cccDNA compared to mutant G-quadruplex structure” value [3] is reported as “higher affinity for the wild-type G-quadruplex structure”, the “entry into target cells” value ([4]; listed as sdAb08) is reported as “do not enter the cells; also recorded: failed to enter target cells” and the “interaction with cccDNA” value [5] is reported as “interacts with HBV cccDNA”. For the same molecule, the “replicates that picked up cccDNA” value [5] was “two of the three replicates”.

B7: sdAb10-1: sdAb10 modified with CPP, NTCP-recognition and NLS sequences; full sequence SEQ ID NO: 19 (protein)
VHH: GRKKRRQRRRPPQGGGGSMAEVQLQASGGGFVQPGGSLRLSCAASGRTSKITSMGWFRQAPGKEREFVSAISWSNGLTNYYADSVKGRFTISRDNSKNTVYLQMNSLRAEDTATYYCASKIHTKPKWYWGQGTQVTVSSGGGGSNPLGFFPGGGGSDHQLDGGGGSPKKKRKVSSFLRNHHHHHH
modifications: Single-Domain Antibody 10-01
With B7 the “entry into target cells” value [4] was “enter the cell; also recorded: localize and enter the target hepatocyte cells”.

B8: sdAb10: single domain antibody, amino acid sequence SEQ ID NO: 16 (protein)
VHH: MAEVQLQASGGGFVQPGGSLRLSCAASGRTSKITSMGWFRQAPGKEREFVSAISWSNGLTNYYADSVKGRFTISRDNSKNTVYLQMNSLRAEDTATYYCASKIHTKPKWYWGQGTQVTVSS
modifications: Single-Domain Antibody 10
B8 was tested, and the “affinity for wild-type G-quadruplex structure of HBV cccDNA compared to mutant G-quadruplex structure” value [3] was “higher affinity for the wild-type G-quadruplex structure” and the HBsAg levels [6] was “dose-dependent decrease in HBsAg levels”.

B9: sdAb 5: single domain antibody, amino acid sequence SEQ ID NO: 11 (protein)
VHH: MAEVQLQASGGGFVZPGGSLRLSCAASGRTSYHTNMGWFRQAPGKEREFVSAISSSPNAATYYADSVKGRFTISRDNSKNTVYLQMNSLRAEDTATYYCARTKYGRVMGHMWYWGQGTQVTVSS
modifications: Single-Domain Antibody 5
For B9, the “affinity for wild-type G-quadruplex structure of HBV cccDNA compared to mutant G-quadruplex structure” value [3] was “higher affinity for the wild-type G-quadruplex structure”.

B10: sdAb1: single domain antibody, amino acid sequence SEQ ID NO: 9; used as negative control (poor binder) (protein)
VHH: MAEVQLQASGGGFVQPGGSLRLSCAASGRTYRHSGMGWFRQAPGKEREFVSAISDDHNMESYYADSVKGRFTISRDNSKNTVYLQMNSLRAEDTATYYCAMTKWHGPGGPHWYWGQGTQVTVSS
modifications: Single-Domain Antibody 1
B10 was tested, and the “interaction with pre-core G-quadruplex of cccDNA” value ([3]; FIG. 4) was “only weakly interacted with the G-quadruplex”, the “affinity for wild-type G-quadruplex structure of HBV cccDNA compared to mutant G-quadruplex structure” value [3] was “higher affinity for the wild-type G-quadruplex structure” and the “interaction with HBV pre-core G-quadruplex” value [7] was “did not interact with HBV pre-core G-quadruplex”. For the same molecule, the “interaction with cccDNA” value [5] was “did not interact with cccDNA” and the “replicates that picked up cccDNA” value [5] was “none of the replicates”.

B11: sdAb 9: single domain antibody, amino acid sequence SEQ ID NO: 15 (protein)
VHH: MAEVQLQASGGGFVQPGGSLRLSCAASGRTSGHYSMGWFRQAPGKEREFVSAISGRGNSLSYYADSVKGRFTISRDNSKNTVYLQMNSLRAEDTATYYCAWWHRDSHPQSGKHMRYWGQGTQVTVSS
modifications: Single-Domain Antibody 9
In the case of B11, the “affinity for wild-type G-quadruplex structure of HBV cccDNA compared to mutant G-quadruplex structure” value [3] is reported as “higher affinity for the wild-type G-quadruplex structure”.
